We go through two substances from patent US20040002124A1.

Assay [1] has as its target α6β1 integrin on human cells (human) (UniProt P23229). Nature of the assay: cell-based or functional assay.
In assay [2] the target is αVβ3 integrin on cells (human) (UniProt P06756). Nature of the assay: cell-based or functional assay.
Chain of αVβ3 integrin on cells (human) (P06756 31-1048, chain 1 of 2): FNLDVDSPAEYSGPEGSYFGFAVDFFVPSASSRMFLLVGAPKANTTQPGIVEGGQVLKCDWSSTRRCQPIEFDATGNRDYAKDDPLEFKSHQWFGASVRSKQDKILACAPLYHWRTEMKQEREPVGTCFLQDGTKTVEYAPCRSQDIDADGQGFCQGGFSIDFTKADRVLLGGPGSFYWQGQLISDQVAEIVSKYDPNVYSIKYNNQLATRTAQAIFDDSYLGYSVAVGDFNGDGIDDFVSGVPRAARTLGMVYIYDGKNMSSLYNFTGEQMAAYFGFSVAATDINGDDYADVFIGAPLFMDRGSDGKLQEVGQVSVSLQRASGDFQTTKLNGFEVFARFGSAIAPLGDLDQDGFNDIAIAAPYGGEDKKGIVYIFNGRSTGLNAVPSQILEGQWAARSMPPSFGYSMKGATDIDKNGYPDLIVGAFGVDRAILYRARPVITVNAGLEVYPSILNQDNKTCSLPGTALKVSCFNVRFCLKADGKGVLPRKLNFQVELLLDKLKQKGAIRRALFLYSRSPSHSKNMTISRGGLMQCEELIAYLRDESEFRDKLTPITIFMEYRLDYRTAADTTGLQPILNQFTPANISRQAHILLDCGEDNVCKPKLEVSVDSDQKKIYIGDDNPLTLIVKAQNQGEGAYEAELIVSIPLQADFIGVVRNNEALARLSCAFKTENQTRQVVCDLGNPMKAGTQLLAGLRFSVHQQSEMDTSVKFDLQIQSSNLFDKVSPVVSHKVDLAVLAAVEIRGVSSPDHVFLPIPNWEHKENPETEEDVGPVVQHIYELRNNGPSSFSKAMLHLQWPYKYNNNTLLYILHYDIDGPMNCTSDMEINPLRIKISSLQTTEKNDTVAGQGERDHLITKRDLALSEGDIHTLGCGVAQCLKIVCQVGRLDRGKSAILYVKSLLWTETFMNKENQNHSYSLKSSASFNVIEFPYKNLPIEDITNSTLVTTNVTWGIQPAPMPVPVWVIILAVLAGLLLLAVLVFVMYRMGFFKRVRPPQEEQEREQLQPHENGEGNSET
Chain of αVβ3 integrin on cells (human) (P05106 27-788, chain 2 of 2, further chain): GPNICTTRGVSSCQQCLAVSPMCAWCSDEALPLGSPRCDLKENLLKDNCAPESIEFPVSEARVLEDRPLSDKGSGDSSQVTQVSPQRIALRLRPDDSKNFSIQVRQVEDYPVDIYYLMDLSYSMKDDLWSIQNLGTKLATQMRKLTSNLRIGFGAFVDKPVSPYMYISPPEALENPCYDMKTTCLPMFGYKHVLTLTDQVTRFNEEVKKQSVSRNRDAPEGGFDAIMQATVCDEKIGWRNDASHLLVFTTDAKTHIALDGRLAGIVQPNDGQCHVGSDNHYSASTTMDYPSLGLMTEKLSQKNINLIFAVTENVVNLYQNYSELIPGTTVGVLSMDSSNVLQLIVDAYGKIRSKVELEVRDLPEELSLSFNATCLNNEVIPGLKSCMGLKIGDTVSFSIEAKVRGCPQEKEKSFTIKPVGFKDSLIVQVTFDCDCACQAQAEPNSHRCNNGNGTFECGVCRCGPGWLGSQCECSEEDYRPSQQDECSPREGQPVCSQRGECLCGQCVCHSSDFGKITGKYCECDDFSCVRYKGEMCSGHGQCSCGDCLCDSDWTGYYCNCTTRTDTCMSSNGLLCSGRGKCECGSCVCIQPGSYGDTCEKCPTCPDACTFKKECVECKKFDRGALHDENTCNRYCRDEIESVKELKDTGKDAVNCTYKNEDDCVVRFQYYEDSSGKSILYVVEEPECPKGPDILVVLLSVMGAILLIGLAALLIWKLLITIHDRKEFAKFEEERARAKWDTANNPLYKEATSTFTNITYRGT

Chain of α6β1 integrin on human cells (human) (P23229 24-1130, chain 1 of 2): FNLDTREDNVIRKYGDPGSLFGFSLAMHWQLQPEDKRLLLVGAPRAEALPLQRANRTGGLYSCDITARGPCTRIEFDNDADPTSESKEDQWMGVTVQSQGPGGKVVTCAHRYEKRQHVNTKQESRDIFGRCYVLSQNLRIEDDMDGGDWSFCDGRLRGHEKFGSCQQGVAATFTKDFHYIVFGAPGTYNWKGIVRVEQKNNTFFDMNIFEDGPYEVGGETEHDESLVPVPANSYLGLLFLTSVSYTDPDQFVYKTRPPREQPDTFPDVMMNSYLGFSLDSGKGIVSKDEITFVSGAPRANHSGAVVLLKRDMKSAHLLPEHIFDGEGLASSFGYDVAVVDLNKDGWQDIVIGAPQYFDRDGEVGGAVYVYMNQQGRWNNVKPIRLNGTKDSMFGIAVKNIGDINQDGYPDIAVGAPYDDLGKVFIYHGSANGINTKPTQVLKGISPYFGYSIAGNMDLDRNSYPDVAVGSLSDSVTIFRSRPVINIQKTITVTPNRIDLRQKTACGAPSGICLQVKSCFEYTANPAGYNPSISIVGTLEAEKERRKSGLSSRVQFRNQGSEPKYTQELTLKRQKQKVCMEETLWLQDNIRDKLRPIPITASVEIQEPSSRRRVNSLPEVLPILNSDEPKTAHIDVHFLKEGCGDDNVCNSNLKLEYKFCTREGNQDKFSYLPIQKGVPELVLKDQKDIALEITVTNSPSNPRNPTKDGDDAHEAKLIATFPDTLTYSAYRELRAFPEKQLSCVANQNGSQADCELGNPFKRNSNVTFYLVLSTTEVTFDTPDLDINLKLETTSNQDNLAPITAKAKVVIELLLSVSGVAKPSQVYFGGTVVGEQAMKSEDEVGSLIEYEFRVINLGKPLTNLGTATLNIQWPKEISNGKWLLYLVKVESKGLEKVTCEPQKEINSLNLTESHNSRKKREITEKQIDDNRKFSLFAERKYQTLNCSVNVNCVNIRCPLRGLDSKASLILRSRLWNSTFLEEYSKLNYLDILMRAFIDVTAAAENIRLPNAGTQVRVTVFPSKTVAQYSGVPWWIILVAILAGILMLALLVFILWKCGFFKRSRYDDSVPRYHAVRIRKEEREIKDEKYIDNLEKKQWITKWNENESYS
Chain of α6β1 integrin on human cells (human) (P05556 21-798, chain 2 of 2, further chain): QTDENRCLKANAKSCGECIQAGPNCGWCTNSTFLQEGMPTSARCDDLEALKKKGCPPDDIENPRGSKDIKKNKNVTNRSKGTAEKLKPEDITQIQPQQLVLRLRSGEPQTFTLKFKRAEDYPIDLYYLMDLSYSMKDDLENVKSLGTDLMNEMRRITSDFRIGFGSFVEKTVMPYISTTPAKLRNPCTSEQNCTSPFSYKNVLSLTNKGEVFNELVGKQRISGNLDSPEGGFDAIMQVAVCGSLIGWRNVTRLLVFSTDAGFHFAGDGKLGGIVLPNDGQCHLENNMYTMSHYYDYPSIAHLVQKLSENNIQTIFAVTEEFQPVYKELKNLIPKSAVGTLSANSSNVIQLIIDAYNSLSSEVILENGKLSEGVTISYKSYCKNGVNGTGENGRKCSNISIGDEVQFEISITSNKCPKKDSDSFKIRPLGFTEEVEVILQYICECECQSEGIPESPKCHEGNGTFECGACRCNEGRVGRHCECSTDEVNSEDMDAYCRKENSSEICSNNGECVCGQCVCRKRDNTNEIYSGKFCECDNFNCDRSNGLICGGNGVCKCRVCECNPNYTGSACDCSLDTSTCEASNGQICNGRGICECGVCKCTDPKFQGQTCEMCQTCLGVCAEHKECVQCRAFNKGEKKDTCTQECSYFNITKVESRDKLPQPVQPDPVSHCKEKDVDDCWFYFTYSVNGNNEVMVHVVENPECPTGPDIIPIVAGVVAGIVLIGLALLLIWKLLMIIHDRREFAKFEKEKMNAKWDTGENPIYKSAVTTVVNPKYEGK

In assay [1], laminin (ligand) registered a 1064SK fibroblast adhesion to laminin (A620), with anti-α6 antibody (20 µg/ml) of 0.48 A620; a 1064SK fibroblast adhesion to laminin (A620), without anti-α6 antibody of 0.62 A620; an inhibition of 1064SK fibroblast adhesion to laminin by anti-α6 antibody of 22%.
“murine Cyr61 (from UniProt P18406 25-379) (ligand)”: in assay [2], the relative binding capacity of HUVE cells on wild-type Cyr61 (5 µg/ml) after pre-incubation with 40 µg/ml anti-αvβ3 antibody (LM609); no pre-incubation = 100 stood at 42%, the relative binding capacity of HUVE cells on wild-type Cyr61 (5 µg/ml) after pre-incubation with 1 mM RGD peptide; no pre-incubation = 100 was determined as 50% and the relative binding capacity of HUVE cells on wild-type Cyr61 (5 µg/ml) after pre-incubation with 2.5 mM EDTA; no pre-incubation = 100 turned out to be 22%. This substance registered an inhibition of 1064SK fibroblast adhesion by anti-α6 antibody (20 µg/ml) in assay [1] of 78%.
